The experiment has as its target GST-F2F3 (GST fusion of CPSF30 zinc fingers F2F3, amino acids 61-121) (UniProt P08515 1-218 = GST).

B1: M186 mutant NS1A protein (other)
chain: MDSNTVSSFQVDCFLWHVRKQVVDQELGDAPFLDRLRRDQKSLRGRGSTLGLNIEAATHVGKQIVEKILKEESDEALKMTMASTPASRYITDMTIEELSRDWFMLMPKQKVEGPLCIRIDQAIMDKNIMLKANFSVIFDRLETLILLRAFTEEGAIVGEISPLPSFPGHTIEDVKNAIGVLIGRFLRYDNTVRVSKTLQRFAWGSSNENGRPPLTPKQKRKMARTARSKVRRDKMAD
modifications: 35S-methionine label (in vitro translated)
Regarding B1, the binding result is “no binding”.

The values are drawn from US20070160982A1 (University of Texas, published 2007).
